Source: patent publication US7846435 (TEIJIN, dated 2010)

Assays:
[1] = target: T1, E. coli Verotoxin II (VT2) (E. coli, UniProt P09385 23-319; P09386 20-89)
T1 sequence 1: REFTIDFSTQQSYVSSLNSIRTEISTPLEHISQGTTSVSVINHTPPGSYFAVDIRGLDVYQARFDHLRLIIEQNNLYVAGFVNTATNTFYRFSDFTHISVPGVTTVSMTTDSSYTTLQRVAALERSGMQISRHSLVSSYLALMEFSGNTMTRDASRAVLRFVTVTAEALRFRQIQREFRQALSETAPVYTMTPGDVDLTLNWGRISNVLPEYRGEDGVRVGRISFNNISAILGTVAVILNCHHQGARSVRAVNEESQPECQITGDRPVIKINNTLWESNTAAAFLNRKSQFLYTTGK
T1 sequence 2: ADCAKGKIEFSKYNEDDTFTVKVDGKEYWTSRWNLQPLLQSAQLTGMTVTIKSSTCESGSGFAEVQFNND

[2] = target: T1, E. coli Verotoxin II (VT2); experiment: BIAcore (SPR)
[3] = target: VT2, VT2vx1 of E. coli 0157:H7 TK40 (E. coli); experiment: cell-based or functional assay

B1: humanized VTm1.1 antibody (HuVTm1.1) (antibody, V domains shown)
VH: EVQLVESGGGLVQPGGSLRLSCAASGFTFSSYGMSWVRQAPGKGLEWVATISTGGSYTYYPDSVKGRFTISRDNSKNTLYLQMNSLRAEDTAVYYCARRGDAWGNLDYWGQGTLVTVSS
VL: EIVLTQSPATLSVSPGERATLSCRASQTISNNLHWYQQKPGQAPRLLIKSASQSISGIPARFSGSGSGTDFTLTISSLESEDFAVYYCQQSYSWPLTFGQGTKVEIK
factor of difference in competition compared to the mouse antibody [1]: ≤ 2 fold
Kd [2]: 3.6 nM
koff [2]: 0.00034 s⁻¹
kon [2]: 95000 M⁻¹ s⁻¹
ED50 (µg/ml), in vitro neutralizing assay [3]: 0.35 µg/mL
